Target: yeast Mediator (yMED), core, devoid of the CKM (yeast (endogenous in strain BJ2168)) (UniProt P38782)
Assay: single-particle EM

fraction of single yMED images with GST-CTD density: 10%
Substance: recombinant GST-labeled CTD of RNAPII (from UniProt P04050 1-1733) (domain or fragment)

Source: PMC4104964
